In US20240400698A1, “ANTI-CHEMOKIN LIKE RECEPTOR 1 ANTIBODIES AND THEIR THERAPEUTIC APPLICATIONS” (OSE IMMUNOTHERAPEUTICS, priority 2018, published 2024):

What was measured:
Assay type in all cases: cell-based
[1] = test system: mice M1 or M2 macrophages; assay: Cytokine secretion by mice M1 or M2 macrophages (ELISA), FIG. 15; conditions: ELISA
Method: FIG. 15. Study of the inflammatory cytokine secretion by human macrophages during CMKLR1 activation. After differentiation of human macrophages M1 or M2, cells were incubated in presence of medium, isotype control, anti-CMKLR1 antibodies (H6 and BZ194), C15 peptides, 2G1 anti-CMKLR1 antibody or RvE1. Secretion of IL10, CCL17 and IL12p40 were assessed by ELISA. Cytokines secretion is measured in the supernatant by using an ELISA kit from BD. Supernatant were diluted at 1/10 for IL10 cytokines, 1/50 for CCL17 cytokines and 1/100 for IL12p40 cytokines. A. IL10 cytokine secretion by M2 cells. B. CCL17 cytokine secretion by M2 cells. C. represents IL 12 cytokine secretion by M1 cells.
Bone marrow cells were harvested and cultured in the RPMI medium supplemented with 10% FBS, glutamine and antibiotics containing macrophages colony-stimulating factor (M-CSF) at 100 ng/ml for 5 days inducing the macrophages differentiation. The macrophages were harvested and cultured for 2 days with either IFNg (20 ng/ml) and LPS (100 ng/ml) inducing the M1 polarization or with IL-4 (20 ng/ml) inducing the M2 polarization. Treatments were added during macrophage polarization at 2 μg/ml.
After differentiation of mice M1 or M2 as explain above, cells were incubated in presence of medium, isotype control, anti-CMKLR1 antibodies: clones H6 and BZ194, C15 peptides, 2G1 the anti-CMKLR1 antibody of interest or RvE1 were used. Then the secretion of IL10, CCL17 and IL12p40 was assessed by ELISA. Cytokines secretion was measured in the supernatant using an ELISA kit from BD. Supernatants were diluted at 1/10 for IL10 cytokines, 1/50 for CCL17 cytokines and 1/100 for IL12p40 cytokines.
Cytokines secretion was detected by ELISA according to the BD manufacturer instructions. Briefly, supernatants were diluted in the appropriate buffer and incubated for 2 hours after overnight coating with capture antibody and saturation. […] TMB supplied by BD Bioscience was used as substrate and colorimetric reaction was read with TECAN.

CMKLR1 receptor [2] = biological target: T1, CMKLR1 receptor (Homo sapiens, UniProt Q99788); assay: Competition with Chemerin in cAMP production by CMKLR1 receptor, CHO-K1 CMKLR1 Gi cells; conditions: FIG. 20A; antibody 1 μM to 1 nM, chemerin 2 nM
T1 construct: host or cells: CHO-K1
T1 sequence (Q99788 1-373): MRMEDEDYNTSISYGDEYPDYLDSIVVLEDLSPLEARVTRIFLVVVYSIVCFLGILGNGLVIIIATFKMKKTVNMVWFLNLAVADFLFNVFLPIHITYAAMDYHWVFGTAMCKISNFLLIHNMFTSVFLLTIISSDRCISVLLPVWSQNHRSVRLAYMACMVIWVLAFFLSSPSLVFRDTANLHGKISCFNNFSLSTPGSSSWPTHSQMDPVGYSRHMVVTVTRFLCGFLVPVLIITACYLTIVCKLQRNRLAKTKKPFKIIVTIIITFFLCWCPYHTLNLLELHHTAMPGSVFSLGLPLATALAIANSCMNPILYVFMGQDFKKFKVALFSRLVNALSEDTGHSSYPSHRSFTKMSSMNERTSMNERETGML
Method: The day before the experiment CHO-K1 CMKLR1 Gi cells (Discover'X ref 95-0080C2) were plated in pre-warmed cell reagent then plated in a 96-well plate at 100 μl/well of cells as (Discover'X ref 15-103) and incubated 24 hours at 37° C., in a 5% CO2 humidified incubator for 24 hours.
For the detection CAMP, antibody reagent and cAMP working detection solution was added to the plate for 1 hour at room temperature, then CAMP solution A was added, and cells incubated 3 hours at room temperature in the dark. Bioluminescence was read with a plate reader with 0.5 s integration.

CMKLR1 receptor [3] = biological target: T1, CMKLR1 receptor; assay: Competition assay of Chemerin-dependent β-arrestin recruitment by CMKLR1 receptor, CHO-K1 CMKLR1 cells; conditions: FIG. 20B; antibody 1 μM to 1 nM, Chemerin 2 or 6 nM
Method: The day before the assay, CHO-K1 CMKLR1 cells (Discover'X ref 93-0313E2) were plated in pre-warmed cell reagent then plated in a 96-well plate at 100 μl/well of cells as (Discover'X ref 15-103) and incubated […] at 37° C., in a 5% CO2 humidified incubator. The anti-CMLKR1 antibody was diluted (22× in 7-point series of 3-fold dilutions from 1 μM to 1 nM) and cells were incubated 30 min at 37° C. with the antibody. […] The luminescence was measured after Working Detection Solution addition to the cells with a plate reader with 0.5 s integration.

B1: 2G1: chimeric anti-CMKLR1 antibody, murine variable regions (SEQ ID No: 10 and 17), human IgG1 constant regions; VH-CDR3 variant LI (antibody, V domains shown)
VH: METDTLLLWVLLLWVPGSTGDEVQLVASGGGLVQPGGSLKLSCAASGFTFSSYGMSWVRQTPDRRLELVATINRYGGSTYYPDSVKGRFTISRDNAKNTLYLQMSSLKSEDTAMYYCPRLIYYGNEGDSWGQGTTLTVSS
VL: METDTLLLWVLLLWVPGSTGDQIVLTQSPAIMSASPGEKVTMTCSASSSVSFMHWYQQKSGTSPKRWIYDTTKLTSGVPARFSGSGSGTFYSLTISSMEAEDAATYYCQQWNSKPPLTFGPGTKLELKR
modifications: human IgG1 constant regions
notes: VH-CDR3 variant LI
**Q.** How did the “IL10 secretion by M2 type macrophages” value ([1]; FIG. 15A) turn out when B1 was run?
**A.** induced

**Q.** What about the “CCL17 secretion by M2 type macrophages” value ([1]; FIG. 15B) of the same molecule?
**A.** induced

**Q.** And the “pro-inflammatory cytokines (IL12) from M1 type macrophages” value ([1]; FIG. 15C)?
**A.** decreased

**Q.** And the “reversal of Chemerin-induced inhibition of forskolin-dependent cAMP production” value (CMKLR1 receptor [2])?
**A.** could not revert this inhibition of production

**Q.** And the “effect on chemerin-dependent activation of the beta-arrestin” value (CMKLR1 receptor [3])?
**A.** did not significantly modify chemerin-dependent activation of the beta-arrestin
